Where two headings read alike, the source gives them in different places.
Columns and labels:
human heart chymase = conditions: none = 100, cited from earlier work
[1] = target: T1, recombinant human chymase (Homo sapiens, UniProt P23946); assay: Inhibitor profile of recombinant human chymase (residual activity, chromogenic substrate); type: biochemical; conditions: none = 100
T1 construct: made in house; host or cells: Escherichia coli (XL1-Blue)
T1 sequence (P23946 22-247): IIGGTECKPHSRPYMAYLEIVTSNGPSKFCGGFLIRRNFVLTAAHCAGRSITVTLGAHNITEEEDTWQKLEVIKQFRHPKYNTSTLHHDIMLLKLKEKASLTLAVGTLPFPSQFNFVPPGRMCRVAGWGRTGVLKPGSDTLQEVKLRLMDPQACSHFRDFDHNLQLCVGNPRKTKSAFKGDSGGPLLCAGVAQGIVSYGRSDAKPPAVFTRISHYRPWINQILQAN
Experimental: (§1) Assays for chymase activity were carried out in cuvettes, which contained, in 1 ml, 80 μg of the chromogenic substrate succinyl-L-PheProPhe-p-nitroanilide in 30 mM Tris-HCl, pH 8.0, 1M NaCl. Samples were placed in a spectrophotometer and set to zero absorbance. The assay was initiated by mixing in approximately 10 μg of protein and absorbance at 405 nm was monitored as a function of time. Chymase activity was determined from the specific activity (110 absorbance units/mg/min at 37° C.; Caughey et al., 1988, Bioch. Biophys. Acta 952:142-149) and the slope of the absorbance vs. time plot.
(§2) MBP-chymase fusion protein, recovered in the insoluble fraction from cell extracts, was resuspended in lysis buffer containing β-mercaptoethanol and 8M urea. After sonication to completely resuspend the pellet, the sample was dialyzed against 10 mM sodium phosphate buffer, pH 7.2 overnight. Insoluble material was removed by centrifugation and the fusion protein was then purified by amylose affinity chromatography as above. The fusion protein was eluted from the resin with maltose and dialyzed against 20 mM Tris-HCl, pH 8.0, 100 mM NaCl. The protein was then exchanged into reducing buffer #1 (0.1M Tris-HCl, pH 8.7, 1 mM EDTA, 6M guanidine-HCl, 0.15M NaCl, 0.3 M reduced glutathione) and incubated at room temperature for 2 hours. The sample was diluted 100-fold into oxidizing buffer #2 (0.1 Tris-HCl, pH 8.0, 1 mM EDTA, 0.15M NaCl, 0.3 mM oxidized glutathione), stirred for 2-48 hr at room temperature, and concentrated 100-fold to 285 μg/ml by ultrafiltration using an Amicon stirred flow cell. Factor Xa cleavage reactions were carried out at room temperature overnight. Ten μl samples were periodically removed and assayed for chymase activity in the presence or absence of various proteinase inhibitors. Several control experiments were also performed as described below.

[2] = Assay for chymase proteolytic activity on chromogenic substrate; type: biochemical; conditions: for proteolytic activity on chromogenic substrate: not refolded, chymase substrate succinyl-L-PheProPhe-p-nitroanilide; for activity released by Factor Xa: refolded fusion protein
Experimental: as §1, §2

Chymase = conditions: general statement, no concentration; cited from earlier work
[3] = at 37° C.; Caughey et al., 1988; cited from earlier work
[4] = tested on: airway submucosal gland cells; conditions: cited from earlier work

O=S(=O)(F)Cc1ccccc1 [PMSF, phenylmethylsulfonyl fluoride]
% Residual Activity, Heart Chymase (human heart chymase; 1 mM inhibitor): 0% | % Residual Activity, Recombinant Enzyme ([1]; 1 mM inhibitor): 0%

CC(=O)N[C@@H](CC(C)C)C(=O)N[C@@H](CC(C)C)C(=O)N[C@H](C=O)CCCNC(=N)N [LEU, leupeptin]
% Residual Activity, Heart Chymase (human heart chymase; 10 μM inhibitor): 106% | remaining activity at 10 µM ([1]; 10 μM inhibitor, read-out: % Residual Activity, Recombinant Enzyme): 100%

Cc1ccc(S(=O)(=O)N[C@@H](Cc2ccccc2)C(=O)CCl)cc1 [TPCK, ptosyl-L-phenylalanine chloromethyl ketone]
% Residual Activity, Heart Chymase (human heart chymase; 1 mM inhibitor): 30% | remaining activity at 100 µM ([1]; 100 μM inhibitor, read-out: % Residual Activity, Recombinant Enzyme): 0%

B1: MBP-chymase: catalytic domain of human mast cell chymase fused to the maltose binding protein of Escherichia coli, wild type chymase amino acid sequence (protein)
chain: IEGRIIGGTECKPHSRPYMAYLEIVTSNGPSKFCGGFLIRRNFVLTAAHCAGRSITVTLGAHNITEEEDTWQKLEVIKQFRHPKYNTSTLHHDIMLLKLKEKASLTLAVGTLPFPSQFNFVPPGRMCRVAGWGRTGVLKPGSDTLQEVKLRLMDPQACSHFRDFDHNLQLCVGNPRKTKSAFKGDSGGPLLCAGVAQGIVSYGRSDAKPPAVFTRISHYRPWINQILQAN
enzymatic activity on the chymase substrate (control experiments) ([2]; Factor Xa alone, or fusion protein in the absence of Factor Xa): did not result in detectable enzymatic activity | proteolytic activity on chromogenic substrate [2]: no detectable proteolytic activity

B2: SBTI: soybean trypsin inhibitor (protein)
chain: DFVLDNEGNPLENGGTYYILSDITAFGGIRAAPTGNERCPLTVVQSRNELDKGIGTIISSPYRIRFIAEGHPLSLKFDSFAVIMLCVGIPTEWSVVEDLPEGPAVKIGENKDAMDGWFRLERVSDDEFNNYKLVFCPQQAEDDKCGDIGISIDHDDGTRRLVVSKNKPLVVQFQKLDKESL
% Residual Activity, Heart Chymase (human heart chymase; 1 μM inhibitor): 0% | % Residual Activity, Heart Chymase (human heart chymase; 100 μM inhibitor): 0% | % Residual Activity, Recombinant Enzyme ([1]; 25 μM inhibitor): 0% | inhibition of chymase (Chymase): inhibited

B3: Chymase: serine protease with chymotrypsin-like substrate specificity of mast cells (protein)
chain: T1 sequence (P23946 22-247)
specific activity [3]: 110 absorbance units/mg/min | secretagogue activity [4]: extremely potent secretagogue

B4: Free chymase: Free chymase, released by Factor Xa cleavage of the fusion protein (protein)
chain: T1 sequence (P23946 22-247)
proteolytic activity on chromogenic substrate [2]: inactive as a protease

B5: recombinant human chymase: enzymatically active, recombinant human chymase released by Factor Xa cleavage of the refolded fusion protein (protein)
chain: T1 sequence (P23946 22-247)
enzymatic activity of released recombinant human chymase ([2]; refolded fusion protein cleaved by Factor Xa, hydrolysis of the chymase substrate): enzymatically active | activity released by Factor Xa ([2]; at 2 hours): 2.7 µg/mL | activity released by Factor Xa ([2]; at 5 hours, remained at this level for up to 24 hours): 4.6 µg/mL
